# Assays:
# [1] = target: glucose-6-phosphate dehydrogenase (G6PD) from Gluconacetobacter diazotrophicus PAL5 (Gluconacetobacter diazotrophicus PAL5); test: SEC; Sephacryl 200 (16/60) gel filtration column, 100 mM Tris-HCl pH 7.35, 0.01 M MgCl2, 0.3 mL/min, AKTA pure FPLC; calibrated with Bio-Rad gel filtration standard; oligomeric state of the native protein
# purified protein [2] = substrate: NC(=O)c1ccc[n+]([C@@H]2O[C@H](COP(=O)(O)OP(=O)(O)OC[C@H]3O[C@@H](n4cnc5c(N)ncnc54)[C@H](OP(=O)(O)O)[C@@H]3O)[C@@H](O)[C@H]2O)c1; test: purified protein; format: biochemical, Gluconacetobacter diazotrophicus; conditions: G6P fixed at 630 µM (~10-fold Km), NADP+ 0 to 250 µM
# purified protein [3] = substrate: O=P(O)(O)OC[C@H]1OC(O)[C@H](O)[C@@H](O)[C@@H]1O; test: purified protein; format: biochemical, Gluconacetobacter diazotrophicus; conditions: NADP+ fixed at 72 µM (~10-fold Km), G6P 0 to 2 mM
stoichiometry N [1],Molecule,Km (purified protein [2]) [µM],Km (purified protein [3]) [µM]
4,glucose-6-phosphate dehydrogenase (G6PD) from Gluconacetobacter diazotrophicus PAL5 (enzyme),,
,"G6PD from GDI (Gluconacetobacter diazotrophicus PA1 5) (protein, full-length, N-terminal His6 tag removed by TEV protease, E. coli BL21(DE3)pLysS, 510 residues (ORF 1530 bp), 56,483 Da monomer, homotetramer 220 kDa) MDGIVASASSEIQGAGLQPRRAPPCTFVVFGGGGDLTKRLLVPAIYNLACAGLLDDGFSIVAVDWAELSDDILRAQFHEALQDFVAKRGTAAAVLRDDIWRWLNTRVSYLRGSFEDPATFERLGARIGSGNAVFYLAVAARFFGTIVDRLGESHLTDEVGETYRRVIVEKPFGHDLNSARELNIRLLRTLRERQIYRIDHYLGKETVQNIMALRFSNGFFEPLWNRQNIDHVQITAAETVGVEKRGRFYEGTGALRDMVPNHLMQLLAMTAMEAPVSFDADAVRDEKSKVLKAIHCTGPEDVVRGQYGGGVLGGTPVRGYRDEPDVAPASRTETYVAMKLAIDNWRWAGVPFYLRTGKRLAVRKTEIAIHFRRAPYALFRDTPVDRLTPNIMTIHIQPTEGVTLQFGAKIPGPTVRLGGVRMKFDYSEWFSEGPSTGYETLIYDCLTGDATLFQRADNIEAGWRAVQPALDWGERTEAAPLCPYAAGSAGPIEADALLARDGRQWQDLAE",7.2,63
